From paper PMC7336809, “AcnSP – A Novel Small Protein Regulator of Aconitase Activity in the Cyanobacterium Synechocystis sp. PCC 6803” (Frontiers in Microbiology, 2020)

B1: recombinant AcnB (aconitase B, Slr0665) (Synechocystis sp. PCC 6803 substr. Kazusa) (protein)
chain: MLQAYRRHVADRQKLGIPPLPLNAQQTTELCELLKNPPEAEKEELMMLLRDRVPPGVDEAAYVKAGFLTAIAKGEVTCPLISGQGAVDLLGTMIGGYNVQSLIELLKSKDTNIASAAATALSKTLLVFDAFNDVLHLSDTNGYAKQVIDAWAEGAWFINKPEVPERITVTVFKVPGETNTDDLSPAPHATTRPDIPLHALAMLEAKMPEGLGTIAELKQKGHPVAYVGDVVGTGSSRKSAINSVLWHIGTDIPFVPNKRAGGYILGGKIAPIFFNTAEDSGALPIECDVNQLNTGDVITIYPREGKITNKAGETITTFQLKPETILDEVRAGGRIPLLIGRALTDKTREALGLSPSPLFVRPTAPADTGKGFTLAQKMVGKACGVQGIRPGTSCEPIMTTVGSQDTTGPMTRDELKELACLGFNADLTLQTFCHTAAYPKPVDIKTHKDLPDFFSTRGGVALRPGDGIIHSWLNRMLLPDTVGTGGDSHTRFPLGISFPAGSGLVAFAAALGVMPLDMPESVLVKFTGELQPGVTLRDIVNAIPWVAMQQGKLTVGKGDKVNVFNGRIMEMEGLPDLKVEQAFELTDATAERSCSGSTIKLSEETVAEYLRSNVVLMKNMIARGYQDARTLLRRIAKMEEWLANPSLMSGDADAEYADVIEVNLDEIKEPIVAAPNDPDNVKLMSECAGDVIHEVFIGSCMTNIGHYRAAAKILEGAGTVKGRLWICPPTRMDEQQLREEGIYGIFAAAGARTEMPGCSLCMGNQARVEDGVTVFSTSTRNFNNRMGKGAQVYLGSAELAAVCALLGKIPTVEEYLAIVSEKVAPFEGELYRYLNFNEIDNFEDFGRVIPLDQMPKIEDILGMPVGAK
notes: full-length (868 aa), His-tagged from pET28a(+) (NdeI/SalI), E. coli BL21 (DE3), Ni-NTA; medium supplemented with Fe-citrate for iron-sulfur centers

Key:
[1] = target: recombinant Synechocystis 6803 aconitase (AcnB), His-tagged (Synechocystis sp. PCC 6803) (UniProt P74582)
purified protein = substrate: O=C(O)/C=C(/CC(=O)O)C(=O)O; test: purified protein; format: biochemical, Synechocystis sp. PCC 6803; conditions: 10 mM DTT (reducing), no AcnSP, 50 mM Tris-malate pH 7.5, 30°C, 0.3 mM NADP+, 2 mM Na2EDTA, 10 mM MnCl2

| Molecule | Kcat of aconitase with 2 nmol AcnSP added to 2 nmol AcnB, oxidizing conditions (−DTT); control without AcnSP 3.46 [1] [s^–1] | Kcat of aconitase with 2 nmol AcnSP added to 2 nmol AcnB, reducing conditions (+10 mM DTT); control without AcnSP 14.92 [1] [s^–1] | Km (purified protein) [µM] | Vmax (purified protein) [µmol/min/mg] | kcat (purified protein) [s⁻¹] |
| --- | --- | --- | --- | --- | --- |
| synthetic AcnSP peptide (aconitase small protein) | 3.15 | 13.8 | – | – | – |
| B1 | – | – | 371 ± 20 | 9.04 | 14.9 |
